# Test: soluble on expression in E. coli; label from the status in PepcDB or PDB records
row,Sequence,soluble on expression in E. coli
1,MSLATEQIQHIAIVGCVHGKYREMYRQLSEYEKSTGKEISFVICTGDMQTLRYEADLVYLKVPPKYKQMGDFHLYYEGKEKAPYLTLFIGGNHESSNVLLHLYNGGFVCFNMYYLGVCSCININGLRIVGVSGIYKSFDEKKPYTYPPSPNDVVSLFHTRNYVIQMLSNLSQSSQIDISLSHDWPQGIVMKGNYKQLYRFQPGFKKDGASLGSPINKVILNTLKPKYWISGHMHCEYHAEEGPTHFIALGKIGYKNAISYLDLPLKQKTDLEYDKDWVCNLIMTWPAFSNKAQFPDLSYSISELLSKRTKELDKKIIELWEKYIGLKIIYDSEGHHHHHH,not soluble
2,MEPRVTQRKRPLDGCMGKITGITSDILKYDHKCFKLSLPAKFPEVCGSDEVFPDPDLLHVLPVAGSLQQSIDQCCLQLESLCRPGLLCAHPTLLFKLHSSMKNRPFFSLIYTYVKKTQQVRKRDRKPRGQVAAGPNPTSVMLEHHHHHH,soluble
3,MDKSELFLTFEAKVKGKKINLPDLKIADGVISTEALASALNASAAIAPDAFQRIIKQAYDANIMFLIQQAQIRAQEINKGEVKDWKDLVANAKDAPNQDVTVEVQAYASPDGGVELNEKLSEQREKNTTTALKKQFQKSNIKDVEINAHYTAQDWEGFKQLVEKSDIQDKELVLRVLSMYPDPEQREQEIKNISTVFRQLADDILPQLRRSRLIANVEIIGKSDDEIKRLAAQNPGRLTVEELLYSATLLESPAQKE,not soluble
4,MGSDKIHHHHHHMKAGISLSLSLALSCSAVAQGQKISVPPVFNIFELVIRQDKNNAYDSLAEKNITASVTGEPGTLAMYSAKKKTNPSVTYMYEIYADSDAYDKHLNSTSYKEFLRNSPDILETSQTRRIDVIPQFLADKKIVQNDSTINNFVIVDVKPELGQAFRHVVLPEMAQSIEREEGVLAMYAAIDKANRNRWYFYEIYASENAYQAHRLTPHFKAYINQTAEMTTYKEAIDIKPGLLMNKGGMRYENE,not soluble
5,MTTFPILRLPEKSLKIAIRCLTMEQIIKFSLISESTKRTAESLNLQADPFWICFGESVHISVHANFVENYQQDIPWNPVEVDLRTLLDHFQSVLHTNKFEYFFV,not soluble
6,MGSDKIHHHHHHMSPREVAAPHEVKARLYILDTNVLMHDPSALFRFEEHDILLPMIVLEELDQHKKGLSEQARNVRQVSRYLDEMLTDTADLDRGLVLPYAQGRLYFQTAAHQQALPEDLAGGKADHEILAVTLALQNRHPEKDVILVSKDINLRIKGRTLGIRVEDYQNDRALDDVDLLYTGAETLSADFWDLHSRDLDAWQESGRSYYKISGPAIQRWHSNQFIAINVEEGAPEDFAAIVREVRPEHAIIERITDYRSDRHAVWGILARNPEQNFALNLLMDPDIDFVTLLGHAGTGKTLLTLAAALHQIFEQKRYSEVIITRATVPVGDEIGFLPGTEEEKMLPWMGALEDNLEILARGSDEGGSWGRSATQDLINKRIRVKSMSFMRGRTFLEKFVIIDEAQNLTSKEMKTLITRAGPGTKIVCLGNIAQIDTPYLTETTSGLTYVVDRFKDWAYSGHITLRRGERSRLADFANDAL,not soluble
7,MTTPKTFVPELLSPAGSLKNMRYAFAYGADAVYAGQPRYSLRVRNNEFNHENLQIGINEAHALGKKFYVVCNIQPHNSKLKTFIRDLKPVIDMGPDALIMSDPGLIMMVREEFPHMPIHLSVQANAVNWATVKFWASQGVERVIVSRELSLEEIEEIREKCPNTEIEVFVHGALCMAYSGRCLLSGYINKRDPNQGTCTNACRWEYKVEAAKEDEAGQIVEQFDPNAAQAIEVQNERPDTTIGAGKPIDDVVLLSESHRPDEKMAAFEDEHGTYIMNSKDLRAVQHVERLTQMGVHSLKIEGRTKSFYYCARTAQVYRKAIDDAVAGKPFDDSLMTTLESLAHRGYTEGFLRRHTHDAYQNYDYGYSVSDTQQFVGEFTGKRRGAMAEVEVKNKFVLGDSLELMTPKGNVIFTLEAMENRKGEATDDAKGNGHFVYIPVPEELDLSYALLMRNLVQGQDTRNPTGK,not soluble
8,MGSDKIHHHHHHMRYLSKDILEEVITQRPSDSYKSNFGRVVLIGGNRQYGGAIIMSTEACINSGAGLTTVITDVKNHGPLHARCPEAMVVGFEETVLLTNVVEQADVILIGPGLGLDATAQQILKMVLAQHQKQQWLIIDGSAITLFSQGNFSLTYPEKVVFTPHQMEWQRLSHLPIEQQTLANNQRQQAKLGSTIVLKSHRTTIFHAGEPFQNTGGNPGMATGGTGDTLAGIIAGFLAQFKPTIETIAGAVYLHSLIGDDLAKTDYVVLPTKISQALPTYMKKYAQPHTAPDSELLEQKRSR,not soluble
9,MSLRPQFEREQWLNLNGTWTFDFDFGKSGKDRRLQSAEKFDKNITVPFCPESKLSGVGYTDFIEQMWYQRNITIPSDWNGKKIFLNFGAVDYCAEIYVDGKFVQRHFGGSSSFAVDLTRYVTPGKTHNLVVFVQDDLRSGLQTGGKQCGNYYSGGCSYTRTTGIWQTVWMEAVSTDGLKSVFVRPDIDQKQLIIEPEFYNESANTLEIILKDGNKTVAKKSVNCANSSVVVLPVKNMKLWSPEDPFLYDLVYQVKDAKGNVLDEVKSYAGMRKVHTANGRFYLNNQPYFQRLVLDQGFYPEGIWTAPSDEDLKNDIVLGKEAGFNGARLHQKVFEERYYYWADKLGYITWGESASWMLDVNKELAARNFLGEWSEVVVRDRNHPSLVTWTPFNETWGGGPDAYVRLVRDVYNITKAIDPTRPVNDASGDNHVITDIWSVHNYEQDRAKLTEQLKMEEGKEPYRNARDKDFLAVYEGQPYMVDEFGGIPWMAEKDRKNSWGYGGMPENAEAFYKRLEGQIDAFIDSPHVTGFCYTQLTDVEQEKNGIYYYDRTPKLDMKRIKAIFEKIKEGHHHHHH,soluble
10,MQKMDCQAIGYGYIIIPKALLKEQLIDCSPHEGEIEAFLKLLVKVNYSETKLTDHQRRTIVCKRGESLHSYRSWSAIFHWPTSRTYRFIQQLKTNGIIEIIPHNDTTALHIRVVNYENWTNISALLNEKKENTQKASNEKFRLFWDDYHNILQLPKENIAKAQRIWKKLSEKEQQLAIDHIEEYYYHQTNMKFTLHACSYLSNKAFLNEYEY,not soluble
11,MRLFHTSDWHLGQNLHGQERDFEHACFLTWLLARLAERQPDVLLIAGDIFDTVNPPVKAQERLYDFIVNAHEQQPLLTIVMIAGNHDSGSRIELPAPLMRRLRTHALGRVMWLNDGVLDAERLLLPLPDANGDIKAWCLALPFLRPAEVTGPTLGDDYLRGIGRVHELLIDAANLKRQPGQALIAISHAHMAGGSVSEDSERSLIIGNAEALPASLFGPSITYVALGHLHKPQRVNGEERIRYSGSPIPLSFSEIGYQHQILEINCDGDTLTSVEPCLIPRAVNLQRLGPAPLADLLVQLKSLPDIDLLADPDRQPWLEVRVRLDEPQPDLRNQIETALQGKAVRLVRIGAEYAGKGSADGSDGEAGLIELDQLTPQELFSRAWQDNFGSEVDEQTLTDFATLLREVQQESEQP,not soluble
12,MKVSILDYGVIDKEKTPQEALLETRCLAQVADKLGFHRFWVAEHHNIYAFAISSPELLMMHLADHTKQIRIGSGGIMPLHYSSFKIAEWIMTLEALHPNRIDLGIGNSLGTTLVQRALSSIHCKDSYSQVVTELYQYLNPDHLSPLPIFVNPRGNTYPQIWTLSNSLETAELAGQLGLGYTFGIFPYIPKDPITEAKRVSAHYRKAFRPSKLLKIPKLILAVFIVLSDTDEKAEALAKPLDIWMLGQQDFNEFKTYPDVEEARNYHLTEKQREAIAANRSRMVIGSPHTVKKQLDRLIEACQADELLAIPLVPEFANRQRTLELLADLYVTI,not soluble
13,MSLERIEPGPDTIRVLLTTDNHVGAFENDPIRGDDAWKTFDEITTIAKDKDVDMIIQGGDLFHINKPTKKSMYHVMKSLRSNCMGDRPCELELLSDPAQSLNNGFDEINYEDPNLNISIPVFAISGNHDDATGESLLLALDVLAVTGLINNFGKVKNTEAITVSPILLQKGQTKLALYGMSNVRDERLHRLFRDGGVKFQRPNIQTEDWFNLFVIHQNHAAHTYTSSIPESFLPNFLDFILWGHEHECIPYPVHNPETTFDVLQAGSSVATSLAEGEVADKKIFILNIKGKDYSIEPVELKTVRPFVLREIILLKTDLIPGAASKADVIAYLTDEVEKSIERANKQFSEGHHHHHH,soluble
14,MGSDKIHHHHHHMENLKTYFYTEDGVVKAVDGVSFEVREGETLGIVGESGSGKSVTSLSIMRLLDQNGKIVDGKIIFKGRNLLELSENEMRKIRGKEIAMIFQEPMVALNPVFTIGDQIMEAIILHQNVSEKEARKMAIDLLRKVGIPEPEKRVDEYPHQLSGGMRQRAMIAMALSCRPSLLIADEPTTALDVTIQAQILELMKELQKEYGMAIILITHDMGVVAEMSDKVAVMYAGKVVEYGDVKTIFTEPKHPYTYALLESIPRIDVEQERLKSIPGNVPDPLNFPPGCKFHPRCEFFEKGKCDVEEPELEDLDGNHKVRCFFWQKLDEMRHAKSEV,not soluble
15,AIAVLLRHPVLGTEQLPDSWPSHWNTAIVGIPGYSRQRSDLSVVKDVSSPCLPLVAMPSCDDGLASLWNDVSRAV,soluble
16,MSLRLVKTALTIAGSDSGGGAGIEADLKTFTAFGVHGLVAITSVTAQNTQAVTAIHDIPPDVVSEQIRAVAEDIGVDAAKTGMLSNAEIIKAVAKTVKNYDFPLVVDPVMIAKSGAPLLREDAVDALIKYILPLATLVTPNRFEAEKLSGMKIRTVEDAKIAAKKIAEETGAKAVIVKGGHIEGEEAIDVLYHNGSYRLYRAPKVEGCTHGTGCSFSAAITANLAKGFGLEDAIEVAKKFITLGIAMGHRIGHGHCPVNQSAWIEIPAEKWRIYEELTRAVREFEEMNPVKFIPEVGTNFVYSLPLPYARTRDDVAGVKGRIVRVGNEVRAVGPVEFGASDHLARAVLTFMKFYPEYRSAINIRYSEETVRLAEEQGLVVSFYDRREEPEEIKEREGATIPWGIESAIKRVKQRPDVIYHLGDVGKEPMILIFGRNPREVLDKLRLEGHHHHHH,soluble
17,MGSDKIHHHHHHAQSIAKGSTPDFSEARTLIKGALENPETKDDAKTWYVAGFIEDQQFSNERTKQVLGQQPDEPVMYEALGSILPYFEKAYELDQLPNEKGKVKPKFTKDIKGILGANHVYYINGGAYYFDQKDYNKAYDFFEQYLKISDMPMFKGEAVAERDSNFMTVQFYAAVAATQLGDSQKAIAALERAKNTDYRASEVYQYLCYEYEQAKDTVNLEKTLEEGLNKFPEEQYFLMSLINNYIYSNRNEKAIEYLNTAIAKDSNNPQLYDVMGRVYETGLKDYAKAEEYFKKALAINPDYIESLSNLGRVYYNQGVNKQGEANMINDAKQYQEELGKAKEFFKQALPYFEKAHQMKPEEREYMTALRGIYYNLNMGDKFDAIEAEMNK,not soluble
18,VTLSLTKDNFDDVVNNADIILVEFYAPWCGHCKKLAPEYEKAAKELSKRSPPIPLAKVDATEQTDLAKRFDVSGYPTLKIFRKGRPFDYNGPREKYGIVDYMIEQSG,soluble
19,MALVRFSPLYEFDRELGTLQRQMSRFLQPWPWTEAELKELSFAPAVEVKETDAAIELRVELPGIDPKDLDLQVTAEAVVLKGERRSEDRSEAEGVLRTEFRYGAFERVIPLPAQVKNTEAQADYQNGILVLTLPKRDEELHKVVKVDLGHLAAAPVAAEACERLEHHHHHH,soluble
